Measured values published in the supplement of paper PMC12636428.

Test system: Saccharomyces cerevisiae
Experiment: transcriptional activation domain activity (GFP:mCherry ratio, weighted mean of sorted bins, harmonized to initial dataset scale) (arbitrary fluorescence ratio units); higher = stronger transcriptional activation
Details: beta-estradiol 1 µM; induction time 4 h
In short: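 The activation activity of each tile is the read-weighted mean of bin median fluorescence, averaged across its barcodes and mapped linearly onto the scale of the initial dataset. Tiles were fused to an estradiol-inducible synthetic transcription factor, barcoded, and integrated at URA3 in yeast diploids carrying a GFP reporter. Induction used 1 uM beta-estradiol in SC for 4 hours at 30 °C, after which cells were sorted into 8 GFP:mCherry bins, and any tile with fewer than 50 reads was dropped.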

Question: Which “transcriptional activation domain activity” value does the source give for “HIDSFLDQMCKVAEGGGFSLSTLADCVILFRDLARIYQEPFSSPFLRLLYAYT” here?
Answer: The value was 65300.

Question: Which “transcriptional activation domain activity” value does the source give for “LEDNAAPASAPAAEEKPVEKAPEEKPEKKEEPQKEEPKKEDAKQAAPKSGASQ” here?
Answer: The value was 46100.

Question: With “HFSPSLSISSLPSLCCLFFFIIFSTSLLWSFFPLPYLTSPYLTLPYTTFFLFP” as the sequence, how does the “transcriptional activation domain activity” value read?
Answer: Its value is 48000.

Question: Which “transcriptional activation domain activity” value does the source give for “AKQGEDDAEKSKRGRKRKESETLEANGEEAGDDAEPAAKKAKPASKPASKAAA” here?
Answer: Its value is 30100.

Question: For “MFYNFFFFIIIYLCFFARMFLVVSRIVMLLAFLYSCLIPLLCGLVFFCIRFKS”, which “transcriptional activation domain activity” value is on record?
Answer: The value was 67300.

Question: With “MGEEDAKVGAGPALQVIVLGSGGGPQENNVTALLVRSVNSNWARGSMLALDAG” as the sequence, how does the “transcriptional activation domain activity” value read?
Answer: Its value is 36500.

Question: “GKPRKRLAQACLTCREKKIKCDPGSPKCAQCQKSHRICRGTGSVASSGGPVGV” was tested. Which “transcriptional activation domain activity” value did it give?
Answer: The value was 19000.

Question: For “MNQTSRFFSPFFLFLFLLFLSFLSPPPFLPSSLPFLLFLPFLPLSLSLLSLIF”, which “transcriptional activation domain activity” value is on record?
Answer: Its value is 15400.

Question: “SNGTNNSGNMNTNADYESFFNTGTNNSNSNQNPYFLSSRNNSLKFNPEDFDFQ” was tested. Which “transcriptional activation domain activity” value did it give?
Answer: The value was 59100.

Question: Which “transcriptional activation domain activity” value does the source give for “ILLYHPNFLLIAISILYIIWCFMVLIMFCVVLPTAFLLLRAALFYPPHGREFI” here?
Answer: Its value is 25900.

Question: “GRTNVALPIYLFVFGELIDAYENRHIHHMDRIKMVLRMWFFKSIWKSFLQGAG” was tested. Which “transcriptional activation domain activity” value did it give?
Answer: The value was 56300.

Question: For “ALYFMVIFTSHIIYTFTLILGRPIVQVIPALYGLLSFLADSDLLFILPLCRMG”, which “transcriptional activation domain activity” value is on record?
Answer: The value was 55000.

Question: How did the “transcriptional activation domain activity” value turn out when “FLWYMLFLPLIIPRLSCSWLRLLCVQSGIFGEPIFFRLWICSIIYVVGHCWVL” was run?
Answer: The value was 31200.

Question: Which “transcriptional activation domain activity” value does the source give for “VDTCRLSAPLVWWLTFGILCTMYLLVLEVILFGILVFMVLPFIMLLYSIMLLC” here?
Answer: The value was 49100.

Question: With “APQPVEATAIDDGFQEAKRGRGRKKAKEEVVASAPAAPADAPQVAKAKVVASA” as the sequence, how does the “transcriptional activation domain activity” value read?
Answer: The value was 23300.

Question: “MGVLFLLCPCLCVVPLFCIAMQWSIGLYLCLDQRFPVLYTYFFILFSSILFCS” was tested. Which “transcriptional activation domain activity” value did it give?
Answer: The value was 48300.

Question: With “GSMGKVKLGVSSISGEKVAIKIIPRFTSTAAAHRPPPPTPSNEPSGSSRRPSS” as the sequence, how does the “transcriptional activation domain activity” value read?
Answer: The value was 7050.

Question: “MCVGTCIYINIPGLHRCYLLLLHLRLSYHIPMYMFIGVPGLRFRVALLISSYF” was tested. Which “transcriptional activation domain activity” value did it give?
Answer: The value was 53300.

Question: For “GEAGAEGEAAAAEGEGAAEEGASGEGAEGEEAAAEEGEGAEEEGGEDLQALAT”, which “transcriptional activation domain activity” value is on record?
Answer: Its value is < 6570.

Question: With “PDVLRKGAKFFCDETVLVKLQIVTLAAKLLVLSPNNLTLILLTKYVFGLARYD” as the sequence, how does the “transcriptional activation domain activity” value read?
Answer: The value was 63000.

Question: For “IKDIEINDLRNRYTLTKGAVQKKGPRLVRPLRISSSPECTEPRPSPCLSVSLS”, which “transcriptional activation domain activity” value is on record?
Answer: The value was 45600.

Question: Which “transcriptional activation domain activity” value does the source give for “SSKHDYKRSRRSKTKDEDDDDDDEDRKRRKRRKEREHSKKKEKEERRSVLTGK” here?
Answer: Its value is 30300.

Question: “EEGAATDGTADANGKPKKAPRKRKSQAGATTEDGQAPKRRKKKSTDAAGGAAA” was tested. Which “transcriptional activation domain activity” value did it give?
Answer: Its value is 31300.

Question: How did the “transcriptional activation domain activity” value turn out when “SASEIRVDSFRKIMSIPLAIFTLRPRHVFVAVRRVCRSCTNYLVVLALYMALF” was run?
Answer: The value was 51800.

Question: Which “transcriptional activation domain activity” value does the source give for “AAATATGAAPPGAPGEGPPKVKRGRKPKPKNLPPSDPNASTTATPGTSAPGSQ” here?
Answer: The value was 32500.

Question: How did the “transcriptional activation domain activity” value turn out when “MSAFSGEDAPSPEGLDRKRKRQRTALSCTECKRRKIKCDRSQPCSSCIRRKVP” was run?
Answer: Its value is 42300.

Question: For “PPPPPPPPPPPLSLLTTAIPPPPPPPPPLGGGPPPPPPPPPGPGGPPPPPPPP”, which “transcriptional activation domain activity” value is on record?
Answer: The value was 30700.

Question: How did the “transcriptional activation domain activity” value turn out when “GKPVALRTSTRVKDVSGDGIVTLESGEQISADVVVGADGVHSRTRYAIPGSAG” was run?
Answer: The value was 52400.

Question: For “EKEEAEKKKKEEAEEKEKEKEKKEKKGGKKKRASKKSSRKSKSKEAAGSGADE”, which “transcriptional activation domain activity” value is on record?
Answer: The value was 25500.

Question: How did the “transcriptional activation domain activity” value turn out when “MICCDLSFGGKLFCKQLFLLLLVFCAILHYNWRWVYSDVLVMILMLAMIISLA” was run?
Answer: Its value is 43600.

Question: How did the “transcriptional activation domain activity” value turn out when “MHTHAVTRSLFLYFLLNFFFIFFLLLEGFGLLLDFSFFFVLFRLDSLSLLFVF” was run?
Answer: The value was 76000.

Question: Which “transcriptional activation domain activity” value does the source give for “LSIWVKYLGCIVRWRKVRIFGESILPIQLLVVVVLLTLRPCSICAPLKVLPYK” here?
Answer: The value was 66000.

Question: For “MTLITIIDLESFIFEDCIDLILFSQFLDSFQHSAVLTAYINWYTNADWWRSIV”, which “transcriptional activation domain activity” value is on record?
Answer: The value was 66900.

Question: For “DAKSGTSGGLFGSAAPASSTAPNSSGAATAGASSTTTTAPAGGLFGAKPAAAS”, which “transcriptional activation domain activity” value is on record?
Answer: The value was < 6570.

Question: With “SKDARETNPEGEEIEKQRRKKRSREEKEDNERSSRKRRSSRSRSPRRQKEKAN” as the sequence, how does the “transcriptional activation domain activity” value read?
Answer: The value was 30900.

Question: With “DREHRSKHRRHSSDSRSRSHSHRERRKDKSKHREKEKDKDRKKRKKEKERRRD” as the sequence, how does the “transcriptional activation domain activity” value read?
Answer: Its value is 36500.

Question: For “VISDSEDEKPPAKKAKTEEKAEKEEAKEDPEAKAKAVKEKEEAALKLATTRIL”, which “transcriptional activation domain activity” value is on record?
Answer: The value was 40700.

Question: How did the “transcriptional activation domain activity” value turn out when “MLLLGYILYLFYYGRYLYGILAFYCFSLLYVTLLPFIFVSARLFLHFTQIGIR” was run?
Answer: The value was 53600.

Question: For “DGGEAGEGGTEGAGGGAGGEEGQQGKRPEEGKRKERHRPAEEHGKEKNHGRGE”, which “transcriptional activation domain activity” value is on record?
Answer: The value was 30700.

Question: With “MLPQLIWGCFIFGLASILLCVTFIPNPSHGYIRMRQSYNSFKLYIFGPSFTYL” as the sequence, how does the “transcriptional activation domain activity” value read?
Answer: The value was 74800.

Question: With “ASKEGEREKEGGREKEGNEGKKEGDKEEGEKKEGTDKEEEEKGGEKGKGSGEE” as the sequence, how does the “transcriptional activation domain activity” value read?
Answer: The value was 47900.

Question: For “LHFFLAFIFLLSAYFHVRGRDLTYYGVWPSMVVWGLDRFLRLLRIGVFNFRYI”, which “transcriptional activation domain activity” value is on record?
Answer: Its value is 42000.
